For this series, the target named is T1, GST-TAp73α (UniProt O15350 1-636).
T1 sequence: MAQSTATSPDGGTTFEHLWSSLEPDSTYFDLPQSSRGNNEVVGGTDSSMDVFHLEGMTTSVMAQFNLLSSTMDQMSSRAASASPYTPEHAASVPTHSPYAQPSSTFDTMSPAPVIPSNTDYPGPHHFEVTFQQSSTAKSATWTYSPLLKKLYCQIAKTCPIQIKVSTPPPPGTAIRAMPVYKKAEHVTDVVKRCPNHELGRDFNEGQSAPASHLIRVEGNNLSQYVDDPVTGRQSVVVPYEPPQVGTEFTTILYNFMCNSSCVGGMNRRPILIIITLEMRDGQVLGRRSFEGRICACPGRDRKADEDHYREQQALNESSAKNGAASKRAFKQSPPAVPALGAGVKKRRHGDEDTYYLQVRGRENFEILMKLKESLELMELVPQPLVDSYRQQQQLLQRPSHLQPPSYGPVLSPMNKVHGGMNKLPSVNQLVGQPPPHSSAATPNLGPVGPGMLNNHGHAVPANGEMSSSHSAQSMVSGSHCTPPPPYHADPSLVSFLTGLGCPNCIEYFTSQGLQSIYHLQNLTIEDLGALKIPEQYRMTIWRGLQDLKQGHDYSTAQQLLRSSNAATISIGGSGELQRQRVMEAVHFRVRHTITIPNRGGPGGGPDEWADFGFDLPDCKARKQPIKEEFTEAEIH
As to the kind of experiment: fluorescence polarization; FP: 4 nM FAM duplex, 100 mM NaCl, 10 mM Tris-HCl pH 7.5, 10% glycerol, 5 mM DTT, 0.2 mg/mL BSA, room temperature; pull-down: 2 ug duplex with lysate, 90 min room temperature, then streptavidin beads 2 h 4 C. Conditions: protein: commercial; tags: GST; chain copies: 4; label: 5' 6-FAM on strand 1; blunt. Background: Fluorescence polarisation rises when a labelled molecule tumbles more slowly, as on binding a larger partner.

In publication PMC4226670, “TAp73 promotes cell survival upon genotoxic stress by inhibiting p53 activity” one finds Kd data, which are given here for one molecule.

B1: PUMA promoter duplex, FAM (dsDNA)
DNA 1: CGCGCCTGCAAGTCCTGACTTGTCCGCGGC
DNA 2: GCCGCGGACAAGTCAGGACTTGCAGGCGCG
Turning to B1, the affinity, expressed as Kd, was 87.1 nM.
